Publication PMC7340258, “Induced DNA bending by unique dimerization of HigA antitoxin” (IUCrJ, 2020)

B1: DNA1 (DNA-1, -35 box) (dsDNA)
DNA 1: CCGACGATGACCGCGCAC
DNA 2: GTGCGCGGTCATCGTCGG
B2: M. tuberculosis HigA3 antitoxin (natural protein)
chain: MTMARNWRDIRADAVAQGRVDLQRAAVAREEMRDAVLAHRLAEIRKALGHARQADVAALMGVSQARVSKLESGDLSHTELGTLQAYVAALGGHLRIVAEFGENTVELTA
notes: also called MtHigA3
B3: DNA4 (DNA-4, palindrome around -10 box) (dsDNA)
DNA 1: AGATATAACCTAGAGGTTATACTG
DNA 2: CAGTATAACCTCTAGGTTATATCT

Key:
MtHigA3 = molecular target: T1, MtHigA3 (Mycobacterium tuberculosis H37Rv, UniProt O53333 1-109); test: EMSA; 0.1-0.6 uM protein, 0.01 uM DNA; details: protein: recombinant; tags: C-terminal […]; chain copies: 2; blunt
T1 sequence: B2 chain

[1] = molecular target: the molecule itself; test: SEC; Superdex 75 (10/300GL), 20 mM citric acid pH 5.0, 150 mM NaCl, 2 mM β-mercaptoethanol; single peak at 26 kDa

Binder | binding result (MtHigA3) | stoichiometry N [1]
B1 | no binding | –
B2 | – | 2
B3 | no binding | –
